The numbers were not newly measured in paper PMC5413910, which cites them from elsewhere.

For orientation: Kd means the free concentration of one partner at which half of the binding sites on the other are occupied at equilibrium, for simple one-to-one binding.

This data set deals with linear (Met1-linked) diubiquitin (Homo sapiens) (UniProt P0CG48).

Sequence of OTULIN (Q96BN8 whole entry): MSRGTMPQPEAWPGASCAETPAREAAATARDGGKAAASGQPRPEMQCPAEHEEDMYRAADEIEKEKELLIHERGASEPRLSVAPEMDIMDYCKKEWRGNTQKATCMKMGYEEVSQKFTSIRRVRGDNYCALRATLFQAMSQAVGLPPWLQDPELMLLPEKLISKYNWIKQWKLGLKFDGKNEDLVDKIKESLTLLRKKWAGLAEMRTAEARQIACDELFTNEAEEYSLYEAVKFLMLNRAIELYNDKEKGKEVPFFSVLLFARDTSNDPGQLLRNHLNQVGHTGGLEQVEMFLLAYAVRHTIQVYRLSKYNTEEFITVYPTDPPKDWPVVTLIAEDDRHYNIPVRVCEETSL

As to OTULIN (from UniProt Q96BN8), the Kd is 150 nM.
